Patent publication US20210238288A1 (Genentech, published 2021)

Assays:
α4β7 integrin = target: T1, α4β7 integrin (human, UniProt P13612 34-970; P26010 20-723); assay: method not stated
T1 construct: Heterodimer; also called alpha4beta7

αEβ7 integrin = target: T2, αEβ7 integrin (human, UniProt P38570 19-1124; P26010 20-723); assay: method not stated
T2 construct: Heterodimer; also called alphaEbeta7; CD103 (αE subunit)
T2 sequence (P38570 19-1124, chain 1 of 2): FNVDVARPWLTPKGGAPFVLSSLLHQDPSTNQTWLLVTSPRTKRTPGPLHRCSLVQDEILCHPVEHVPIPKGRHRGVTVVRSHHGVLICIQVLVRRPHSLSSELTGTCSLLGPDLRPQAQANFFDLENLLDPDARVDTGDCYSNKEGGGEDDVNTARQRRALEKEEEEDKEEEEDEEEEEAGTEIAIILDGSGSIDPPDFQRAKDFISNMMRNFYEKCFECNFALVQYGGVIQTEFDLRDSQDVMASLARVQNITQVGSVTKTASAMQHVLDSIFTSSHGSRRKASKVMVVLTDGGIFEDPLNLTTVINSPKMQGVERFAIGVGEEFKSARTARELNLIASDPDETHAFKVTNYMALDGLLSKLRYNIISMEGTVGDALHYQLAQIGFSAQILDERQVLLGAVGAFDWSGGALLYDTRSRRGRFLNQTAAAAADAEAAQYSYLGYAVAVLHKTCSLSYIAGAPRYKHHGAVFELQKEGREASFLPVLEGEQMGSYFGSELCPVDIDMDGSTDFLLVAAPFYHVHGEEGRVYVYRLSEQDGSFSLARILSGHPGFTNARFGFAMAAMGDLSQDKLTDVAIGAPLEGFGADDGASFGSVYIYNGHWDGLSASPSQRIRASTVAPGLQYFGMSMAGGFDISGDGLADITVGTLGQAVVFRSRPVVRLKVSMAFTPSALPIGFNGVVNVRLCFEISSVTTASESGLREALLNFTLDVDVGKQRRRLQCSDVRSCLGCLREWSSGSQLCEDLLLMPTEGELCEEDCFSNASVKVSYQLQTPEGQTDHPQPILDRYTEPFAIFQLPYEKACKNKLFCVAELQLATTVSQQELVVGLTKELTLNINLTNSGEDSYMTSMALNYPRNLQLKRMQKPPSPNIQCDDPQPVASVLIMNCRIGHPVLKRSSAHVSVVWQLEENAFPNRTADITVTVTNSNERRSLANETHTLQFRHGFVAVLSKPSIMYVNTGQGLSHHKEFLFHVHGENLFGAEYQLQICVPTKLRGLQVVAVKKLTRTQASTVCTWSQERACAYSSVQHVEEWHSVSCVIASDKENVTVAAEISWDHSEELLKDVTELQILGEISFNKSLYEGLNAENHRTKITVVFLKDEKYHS
T2 sequence (P26010 20-723, chain 2 of 2): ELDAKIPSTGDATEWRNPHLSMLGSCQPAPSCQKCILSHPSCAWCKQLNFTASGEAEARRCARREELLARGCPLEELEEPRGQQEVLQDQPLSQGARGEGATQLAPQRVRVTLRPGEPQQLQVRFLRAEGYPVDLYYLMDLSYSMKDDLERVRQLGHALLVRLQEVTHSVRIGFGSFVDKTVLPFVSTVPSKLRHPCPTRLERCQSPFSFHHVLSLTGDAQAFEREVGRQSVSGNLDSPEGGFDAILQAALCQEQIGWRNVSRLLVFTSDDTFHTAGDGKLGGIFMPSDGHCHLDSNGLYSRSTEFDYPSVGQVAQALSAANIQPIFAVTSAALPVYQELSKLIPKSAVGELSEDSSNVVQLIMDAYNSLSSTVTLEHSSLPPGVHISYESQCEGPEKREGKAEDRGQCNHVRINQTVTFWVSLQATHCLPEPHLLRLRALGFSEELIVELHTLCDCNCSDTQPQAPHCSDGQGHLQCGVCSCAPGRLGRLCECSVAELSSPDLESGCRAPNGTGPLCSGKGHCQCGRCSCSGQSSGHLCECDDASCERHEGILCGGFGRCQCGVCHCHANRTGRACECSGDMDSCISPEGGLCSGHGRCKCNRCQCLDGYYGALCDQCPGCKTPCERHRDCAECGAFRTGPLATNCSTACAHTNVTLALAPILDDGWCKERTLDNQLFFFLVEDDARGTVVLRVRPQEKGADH

B1: rhuMAb Beta7 (etrolizumab) (antibody, V domains shown)
VH: EVQLVESGGGLVQPGGSLRLSCAASGFFITNNYWGWVRQAPGKGLEWVGYISYSGSTSYNPSLKSRFTISRDTSKNTFYLQMNSLRAEDTAVYYCARTGSSGYFDFWGQGTLVTVSS
VL: DIQMTQSPSSLSASVGDRVTITCRASESVDDLLHWYQQKPGKAPKLLIKYASQSISGVPSRFSGSGSGTDFTLTISSLQPEDFATYYCQQGNSLPNTFGQGTKVEIKR
For B1, the Kd (α4β7 integrin) was ~0.116 nM and the Kd (αEβ7 integrin) was ~1.8 nM.
